doi:10.1101/2023.03.10.531533 (bioRxiv, 2023)

Legend:
[1] = biological target: mouse Fc-tagged SARS-CoV-2 RBD (SARS-CoV-2, Wuhan-Hu-1 (assumed from …, UniProt P0DTC2)); assay: ELISA
[2] = biological target: recombinant SARS-CoV-1 spike protein (SARS-CoV-1, isolate , UniProt P59594, stabilised); assay: ELISA
[3] = biological target: HR2 protein, residues H1159-K1211 of the SARS-CoV-2 spike (SARS-CoV-2, UniProt P0DTC2); assay: crystal structure

B1: VHH R3DC23 (VHH)
VHH: QVQLQESGGGLVQAGDSLTLSCAVSGRIFSTYTMGWFRQAPGKEREFVAAVRWGAGTIYYADSMKGRFTISRDSAKNTVDLQMNSTKPEDTAVYYCGAAYVSKANYGSLWYQDSRRYDYWGQGTQVTVSS
binding result [1]: no binding | binding result [2]: binds | binding result [3]: binds
